Measurements published in patent US8124835B2, “Acyl-coa-dependent diacylglycerol acyltransferas 1 (DGAT1) gene from Tropaeolum majus, protein encoded thereby and uses thereof” (National Research Council of Canada, priority 2006, dated 2012).

Key:
[1] = tested on: wild type (WT) Arabidopsis; experiment: Over-expression of TmDGAT1 in wild-type Arabidopsis; type: in vivo, Arabidopsis thaliana
From the text: FIG. 10. Over expression of the TmDGAT1 in Arabidopsis. Effect of transformation of Arabidopsis with the TmDGAT1 cDNA under the control of a napin promoter on (A) oil content and (B) average 1000-seed weight. Total oil content (as percentage of mature seed dry weight) and seed weight are shown for pSE (empty plasmid) in WT Arabidopsis (white bars), non-transformed WT Arabidopsis (black bars) and napin:TmDGAT1 transgenic homozygous T3 Arabidopsis lines (gray bars represent transgenic lines with a single insert and hatched bars represents transgenic lines with multiple inserts). (C) Fatty acid composition is shown for pSE (empty plasmid) in WT Arabidopsis and napin:TmDGAT1 transgenic homozygous T3 Arabidopsis lines. Homozygous T3 napin:TmDGAT1 lines were analyzed in triplicate, about 200 seeds per sample, accurately counted and weighed. For the plasmid only pSE in WT transgenic and non-transformed WT controls, ≧8 individual seed lots were similarly analyzed; the averaged values are presented.
FIG. 11. […]
Transgenic plants were selected and analyzed essentially as described previously (Jako et al., 2001; Mietkiewska et al., 2004). […]
Segregation analyses were performed to further confirm and select those transformants containing a single copy of the inserted fragment. […] Plants that contained the insertion (as shown by the presence of a PCR product from a napin/NOS junction using NN3 primer (5′-[…]-3′; SEQ ID NO: 22) and NN4 primer (5′-[…]-3′; SEQ ID NO: 23) and that carry a single locus insertion (as determined by a 3:1 segregation ratio of T2 seeds on kanamycin) were identified. Southern analyses were performed to further confirm and select those transformants containing single vs. multiple copies of the inserted fragment. DNA samples were digested with restriction enzymes KpnI (or BglII), resolved by electrophoresis on a 1% (w/v) agarose gel, and Southern blotting performed using a nylon filter (Hybond N+, Amersham) according to Sambrook et al. (1989). […]

[2] = tested on: B. napus HEAR breeding line 2026; experiment: Over-expression of TmDGAT1 in B. napus HEAR breeding line 2026; type: in vivo, Brassica napus
From the text: FIG. 12. Over expression of the TmDGAT1 in B. napus High erucic acid rapeseed breeding line 2026 (courtesy of Dr. P. B. E. McVetty, University of Manitoba). Effect of transformation of B. napus with the TmDGAT1 cDNA under control of the napin promoter on (A) oil content (as percentage of mature seed dry weight), (B) Total oil/100 seeds, (C) Relative net oil content (with the control average set at 100%). T1 seeds of B. napus plasmid-only control transgenic lines (napin:pSE; black bar) and napin:TmDGAT1 transgenic lines (hatched bars) are shown ±SE.
The final binary vector (napin/DGAT/nos) was verified and electroporated into Agrobacterium tumefaciens cells strain GV3101 containing helper plasmid pMP90 (Koncz and Schell, 1986). Plasmid integrity was verified by DNA sequencing following its re-isolation from A. tumefaciens and transformation into E. coli.
Arabidopsis thaliana (ecotype Columbia) WT and mutant line AS11 (Katavic et al., 1995; Zou et al, 1999) were transformed by a vacuum infiltration method (Clough and Bent, 1998). B. napus HEAR breeding line 2026 (courtesy of Dr. P. B. E. McVetty, University of Manitoba) was transformed utilizing hypocotyl explants and a modified method of DeBlock et al., 1998. Modifications of the hypocotyl explant transformation method were described previously (Zou et al., 1997).
Total lipid extracts (TLEs) were prepared as described above, and lipid class analyses, determination of oil content and composition in all seed lines from WT and the AS11 transgenic plants and in nasturtium seed were performed as described previously (Taylor et al., 1991; 1992 a & b; Zou et al., 1997; Jako et al., 2001). In all cases, the data represent the averages of three to five determinations. Intact-seed transmethylation followed by gas chromatography (GC) analysis provided equally reproducible analyses of Arabidopsis seed oil as reported by Li et al., (2006). […]

B1: TmDGAT1: Tropaeolum majus acyl-CoA-dependent diacylglycerol acyltransferase 1, 518 amino acids (SEQ ID NO: 3), encoded by ORF SEQ ID NO: 2 (protein, listed as Tropaeolum majus)
chain: MAVAESSQNTTTMSGHGDSDLNNFRRRKPSSSVIEPSSSGFTSTNGVPATGHVAENRDQDRVGAMENATGSVNLIGNGGGVVIGNEEKQVGETDIRFTYRPSFPAHRRVRESPLSSDAIFKQSHAGLFNLCIVVLIAVNSRLIIENLMKYGWLIDTGFWFSSRSLGDWSIFMCCLTLPIFPLAAFIVEKLVQRNHISELVAVLLHVIVSTAAVLYPVIVILTCDSVYMSGVVLMLFGCIMWLKLVSYAHTSSDIRTLAKSGYKGDAHPNSTIVSCSYDVSLKSLAYFMVAPTLCYQPSYPRSSCIRKGWVVRQFVKLIVFIGLMGFIIEQYINPIVRNSKHPLKGDFLYAIERVLKLSVPNLYVWLCMFYSFFHLWLNILAELLRFGDREFYKDWWNAKTVAEYWKMWNMPVHRWMVRHLYFPCLRNGIPKEGAIIIAFLVSGAFHELCIAVPCHVFKLWAFIGIMFQVPLVLITNYLQEKFSNSMVGNMIFWFIFCILGQPMCVLLYYHDLINLKEK
net increase in oil content ([1]; best line (TD/WT 13-6)): 44%
increase in DGAT activity ([1]; best line (TD/WT 13-6), mid-developing seed): two-fold
increase in total proportion of mono-unsaturated fatty acids (18:1+20:1) in seed TAGs ([1]; data not shown): 2-3%
oil content increase ([2]; T1 generation compared to average pSE plasmid-only control lines): 3.5-4.5%
increase in oil content on a per 100-seed basis ([2]; T1 seeds): 20 to 30 mg
net overall oil increase ([2]; T1 seeds compared with average of pSE controls): ≤ 15%
